Measured values from the supplement of paper PMC9170038.

System: MS2 coat protein
Test: apparent KD of MS2 coat protein; designed switch direction (-1 OFF switch, 1 ON switch): -1; higher = weaker reporter binding
Summary of the method: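 Designed RNA switches sharing common flanks were transcribed on Illumina chips by stalled E. coli RNA polymerase. They were titrated with SNAP-549-labelled MS2 coat protein, from 0.7 or 1.5 nM doubling to 3 µM, in Tris-HCl pH 7.5 buffer with KCl, MgCl2, BSA, DTT, tRNA and Tween-20. Titrations ran without input, with 200 uM small-molecule ligand, or with an oligonucleotide input. The apparent KD of each design is the median over its clusters, after curve-fitting of normalised cluster fluorescence.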

[1] = input ligand: microRNA oligo, concentration not stated
[2] = Eterna round: R95, input ligand: microRNA oligo, concentration not stated
[3] = Eterna round: R95, input ligand: FMN 200 uM
[4] = Eterna round: R95, input ligand: none

Sequence	apparent KD of MS2 coat protein (input ligand: FMN 200 uM)	apparent KD of MS2 coat protein [1]	apparent KD of MS2 coat protein (input ligand: none)	apparent KD of MS2 coat protein [2]	apparent KD of MS2 coat protein [3]	apparent KD of MS2 coat protein [4]
ACAUGAGGAUCACCCAUGUGACAAUAAUGGCUGAUACAGAGACAGGAUAUUCGUGAAUAUCUAACGAAGAAGGGUCAUGACUGG [Deportation 69 - Jieux - Exclusion NG 3] (Eterna round: R96, puzzle: Exclusion NG 3)	37.9 nM	45.7 nM	51.8 nM	–	–	–
ACAUGAGGAUCACCCAUGUGACCACGAUGGCUGAUGUAAAGACAGGAUAUGUGUGAAUAUCUAACACAGAAGGGUCUUGACUGG [Deportation 56 - Jieux - Exclusion NG 3] (Eterna round: R96, puzzle: Exclusion NG 3)	33.8 nM	32.6 nM	33.2 nM	–	–	–
ACAUGAGGAUCACCCAUGUUGUACUGGAUAGGGUGGUCCAGGUAGGAUAUGCAAACGCGUUGCGAGCAGAAGGACCACAGCCAG [Ceed] (Eterna round: R96, puzzle: Exclusion NG 3)	49.8 nM	29.4 nM	35.3 nM	–	–	–
ACAUGUAAUGCAGGAUAUGGGACACAUGAGGAUCACCCAUGUUACCAUAUGUAAUGCUAAGAGUCUCAGAAGGGUAUGUACAUG [Ex NG2 #47] (Eterna round: R96, puzzle: Exclusion NG 2)	8.6 nM	12.2 nM	15.6 nM	–	–	–
ACAUGUAAUGUAGGAUAUUUUACACAUGAGGAUCACCCAUGUAACCGGAGGCUUUACUAUGAGUAAGAGAAGGGUAUGUACAUG [Ex NG2 #63] (Eterna round: R96, puzzle: Exclusion NG 2)	90.5 nM	85.2 nM	131 nM	–	–	–
ACAUGUACAGAGGAUAUGCGCCUUGGCAAUGGUGUAGAAGGCUGAACAUGAGGAUCACCCAUGUGCAAUCCAAC [EX6 A.5] (Eterna round: R97, puzzle: Exclusion 6)	378 nM	–	55.4 nM	–	–	–
ACAUGUAUUGCAGGAUAUGGGACACAUGAGGAUCACCCAUGUGACUACAUGUCAUGCCACGGGUCUCAGAAGGGUAUGUACAUG [Ex NG2 #41] (Eterna round: R96, puzzle: Exclusion NG 2)	23.3 nM	12.1 nM	14.9 nM	–	–	–
ACAUGUCAUUGAGGAUAUCGCACACAUGAGGAUCACCCAUGUAAACGGAUGCUCUUUCGUGGGUUCGAGAAGGCGAUGUACAUU [Ex NG2 #96] (Eterna round: R96, puzzle: Exclusion NG 2)	136 nM	49 nM	88 nM	–	–	–
ACAUGUCAUUGAGGAUAUUGCACACAUGAGGAUCACCCAUGUAAACGGAUGCUCUUACGUGGGUUCGAGAAGGCGAUGUACAUU [Ex NG2 #94] (Eterna round: R96, puzzle: Exclusion NG 2)	156 nM	186 nM	252 nM	–	–	–
ACAUGUUAUCCAUGAUAUCACAUGAGGAUCACCCAUGUUAUGGCGAUUUUGAGGUGUAAGCUUUGUGCUCGACUUAU [JR_STOV1_Sub056] (Eterna round: R97, puzzle: Sensor, turn-off variant 1)	45 nM	–	50 nM	–	–	–
ACAUUACAUGAGGAUCACCCAUGUGAGGAUAUGGUGCGGUAGUGUCCUGUCGCGUACUCCAGAAGGCGCGGGUG [1st #46] (Eterna round: R97, puzzle: Exclusion 1)	174 nM	–	194 nM	–	–	–
ACAUUGAAUGUGAGGAUAUCGAUGUGAUGGGUUGUCGAGAAGGCACAUGAGGAUCACCCAUGUGGGAUGUAGCA [JR_BMEx4_Sub033] (Eterna round: R97, puzzle: Brourd's mod of Exclusion 4)	349 nM	–	91.2 nM	–	–	–
ACCAAAGCAGUAGGAUAUACGCACAUGAGGAUCACCCAUGUAGCACGUCUCCAGACACCGAAUGCGUAGAAGGACUGCGCGCAA [Eternabot solution 3] (Eterna round: R96, puzzle: Exclusion NG 2)	7.86 nM	4.69 nM	17 nM	–	–	–
ACCAAGCUAGGAUAUGCUUGGGCUCAAAUAAAUAAACACAAACAUGAGGAUCACCCAUGUAGAAGGAGCUUGCU [Zaabiquer] (puzzle: Exclusion 2)	–	–	–	12.6 nM	–	–
ACCGAACAUGAGGAUCACCCAUGUAAGGAUAUCCGUGGACAGCGCCAAAGUUACCGGCGGAGAAGGUGCAUGGU (Eterna round: R97, puzzle: Exclusion 1)	24.6 nM	–	19.2 nM	–	–	–
ACCGUGUAAGGAUAUCGAGGCCGAGGAAGUCGCAUGGCCUGUGAGAAGGUACAUGAGGAUCACCCAUGUCCCAU [Eternabot (L2) Solution 6] (Eterna round: R97, puzzle: Exclusion 4)	28.7 nM	–	27.6 nM	–	–	–
ACCUCACAUGAGGAUCACCCAUGUCAGGAUAUAUUGUGCAAGCGCCGUGGCGUAUGUAGUAGAAGGGACGAAAC [Eternabot (L1) Solution 77] (Eterna round: R97, puzzle: Exclusion 1)	18.3 nM	–	17.8 nM	–	–	–
ACCUCACAUGAGGAUCACCCAUGUCAGGAUAUGUACCCGAUCAAGUCAGAGAUUGGGAGCAGAAGGGACUGCGG [Leesla] (puzzle: Exclusion 1)	–	–	–	104 nM	–	–
ACCUCUAUCUAGGAUAUUGGAACCCGGUUAAAACAAGAAGGAGAUACAUGAGGAUCACCCAUGUUAACGAUGGA [Ereseninso] (puzzle: Exclusion 6)	–	–	–	23.3 nM	97.5 nM	28.5 nM
ACGAUGACCGAAAAGUGUAAACUGACAUGAGGAUCACCCAUGUAGGAUAUGGCUACGAAAAGUAGUCAGAAGGGCAUGUCAUCA [Omei Exc(NG) 3 Av9] (Eterna round: R96, puzzle: Exclusion NG 3)	16 nM	16.4 nM	20.9 nM	–	–	–
ACGGACGCAGGAUAUCGCACCGGAGACUUGAGGAUCACCCAAGUGGUUUUCCCUUCGCAACGAGAAGGGCGACCUA [Tiarle] (Eterna round: R97, puzzle: Exclusion 5)	55.7 nM	–	35.2 nM	–	–	–
ACGUGAUAUCUGUCGGUGGACAUGAGGAUCACCCAUGUGAGCUUUUUGCUCGUCUUGUAACCCGGUGACAGACCUUC [Encetia] (puzzle: Sensor v3, turn-off variant 1)	–	–	–	213 nM	22.4 nM	22.3 nM
ACGUGAUAUCUGUCGUUGGACAUGAGGAUCACCCAUGUGAGCUUUUUGCUCGUCUUAUAACCCGGUGACAGACCUUC [Aatbebeed] (puzzle: Sensor v3, turn-off variant 1)	–	–	–	247 nM	18.4 nM	16.6 nM
ACGUGCACUCAGGAUAUGCUACGCCUGCUCUCAGCAGAAGGGAGUACAUGAGGAUCACCCAUGUGACAUCUGAU [Eternabot (Original) Solution 13] (Eterna round: R97, puzzle: Exclusion 6)	44.3 nM	–	26 nM	–	–	–
ACGUUCAUUGAACAUGAGGAUCACCCAUGUGGCCUCCGGGUGGAGGAUAUGCACCAGGCCGAGGUGUAGAAGGCCAUAUACCGA [Riraed] (Eterna round: R96, puzzle: Exclusion NG 3)	155 nM	49 nM	81.4 nM	–	–	–
